Assay results as given in paper PMC6294903 (Proceedings of the National Academy of Sciences of the …, 2018).

T1: DnaJ C268A (Salmonella enterica serovar Typhimurium, UniProt P0A1G7 1-379, C268A)
T1 sequence (looked up): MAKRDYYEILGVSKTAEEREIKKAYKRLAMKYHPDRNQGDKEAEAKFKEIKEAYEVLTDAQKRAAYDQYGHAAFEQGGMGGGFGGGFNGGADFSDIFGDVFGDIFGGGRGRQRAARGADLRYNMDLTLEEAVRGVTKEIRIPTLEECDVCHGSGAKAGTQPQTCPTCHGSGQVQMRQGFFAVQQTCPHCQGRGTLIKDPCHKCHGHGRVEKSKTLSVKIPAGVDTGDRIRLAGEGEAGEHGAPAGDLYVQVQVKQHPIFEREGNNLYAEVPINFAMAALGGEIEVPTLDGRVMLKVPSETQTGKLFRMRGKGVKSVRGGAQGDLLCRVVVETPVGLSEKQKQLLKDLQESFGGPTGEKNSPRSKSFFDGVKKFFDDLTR


Key:
[1] = molecular target: DnaJ-6His (Salmonella enterica serovar Typhimurium) (UniProt P0A1G7); experiment: MST
DnaJ C268A = molecular target: T1, DnaJ C268A; experiment: pull-down

Row | Molecule | Kd [1] [nM] | binding result (DnaJ C268A)
1 | oxidized DksA (recombinant, GST removed) (from UniProt P0A1G5 1-151) (natural protein) | 65 | –
2 | GST-DksA (wild type, pull-down done in the absence of DTT) (natural protein, Salmonella enterica serovar Typhimurium, UniProt P0A1G5 1-151, looked up) MQEGQNRKTSSLSILAIAGVEPYQEKPGEEYMNEAQLSHFKRILEAWRNQLRDEVDRTVTHMQDEAANFPDPVDRAAQEEEFSLELRNRDRERKLIKKIEKTLKKVEDEDFGYCESCGVEIGIRRLEARPTADLCIDCKTLAEIREKQMAG | – | binds
